According to publication PMC6073801:

Assays:
[1] = target: ECD_FGFR1-Fc receptor (extracellular region of fibroblast growth factor receptor 1) (UniProt P11362)
[2] = target: ECD_FGFR1-Fc receptor (extracellular region of fibroblast growth factor receptor 1) (UniProt P11362); remark: listed apart in the source

Sequence of UniProt P11362 (P11362 22-376): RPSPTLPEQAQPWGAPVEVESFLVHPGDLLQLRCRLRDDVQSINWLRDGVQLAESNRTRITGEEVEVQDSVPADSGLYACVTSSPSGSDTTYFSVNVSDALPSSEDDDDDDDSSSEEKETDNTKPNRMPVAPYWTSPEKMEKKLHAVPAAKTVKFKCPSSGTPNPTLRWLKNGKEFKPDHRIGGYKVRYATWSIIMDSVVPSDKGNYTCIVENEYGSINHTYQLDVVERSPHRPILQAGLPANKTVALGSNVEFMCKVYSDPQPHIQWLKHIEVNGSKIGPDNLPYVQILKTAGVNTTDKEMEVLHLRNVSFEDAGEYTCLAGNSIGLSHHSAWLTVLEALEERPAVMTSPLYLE

Question: How did the internalization of the DyLight550-labelled conjugate, intracellular fluorescence, NCI-H520 (FGFR1 positive) against HCC-15 (FGFR1 negative) cells [1] turn out when “FGF2 Cys78-α-amanitin/PrK96-MMAE conjugate (from UniProt P09038-2 23-155) (ligand)” was run?
Answer: Its internalization of the DyLight550-labelled conjugate, intracellular fluorescence, NCI-H520 (FGFR1 positive) against HCC-15 (FGFR1 negative) cells is 2 times.

Question: And the internalization of the DyLight550-labelled conjugate, intracellular fluorescence, U2OS-FGFR1 against control U2OS cells [1]?
Answer: The internalization of the DyLight550-labelled conjugate, intracellular fluorescence, U2OS-FGFR1 against control U2OS cells was 5 fold.

Question: What about the cytotoxicity (AlamarBlue viability), FGFR1-positive NCI-H446 cells, reduction of viability at the highest tested concentration; no toxicity for FGFR1-negative HCC-15 [2] of the same substance?
Answer: Its cytotoxicity (AlamarBlue viability), FGFR1-positive NCI-H446 cells, reduction of viability at the highest tested concentration; no toxicity for FGFR1-negative HCC-15 is 95%.
